Measured values from patent EP1167527A9 (Euroscreen S.A., dated 2002).
One block for each binder: values may come before it.

Key:
[1] = molecular target: T1, chemokine receptor 5 (CCR5; AC P51681) (human, UniProt P51681 1-352); experiment: cell-based or functional assay
[2] = molecular target: T2, chemokine receptor CCR1 (human, UniProt P32246 1-355); experiment: radioligand competition, 125I-Rantes tracer, CCR1
T2 construct: whole, on cells
T2 sequence (looked up): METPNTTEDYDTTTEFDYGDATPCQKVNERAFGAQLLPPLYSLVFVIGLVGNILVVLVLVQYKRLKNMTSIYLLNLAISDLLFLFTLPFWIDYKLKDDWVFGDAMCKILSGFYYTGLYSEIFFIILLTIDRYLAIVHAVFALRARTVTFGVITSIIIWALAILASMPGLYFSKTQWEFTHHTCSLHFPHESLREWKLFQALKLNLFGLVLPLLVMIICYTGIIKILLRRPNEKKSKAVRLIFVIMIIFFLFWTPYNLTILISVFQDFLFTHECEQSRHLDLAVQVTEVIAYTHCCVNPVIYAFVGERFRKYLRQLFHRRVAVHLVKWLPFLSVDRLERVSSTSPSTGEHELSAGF

[3] = molecular target: T2, chemokine receptor CCR1; experiment: radioligand competition, 0.1 nM 125I-Rantes tracer, crude membranes of CHO-K1 cells expressing CCR1
[4] = molecular target: T1, chemokine receptor 5 (CCR5; AC P51681); experiment: radioligand competition, 125I-MIP 1-alpha tracer, CCR5
[5] = molecular target: T1, chemokine receptor 5 (CCR5; AC P51681); experiment: radioligand competition, 0.1 nM 125I-MIP 1-alpha tracer, crude membranes of CHO-K1 cells expressing CCR5
[6] = molecular target: T3, chemokine receptor CCR3 (human, UniProt P51677 1-355); experiment: radioligand competition, 0.1 nM 125I-Eotaxin tracer, crude membranes of CHO-K1 cells expressing CCR3
T3 construct: whole, on cells
T3 sequence (looked up): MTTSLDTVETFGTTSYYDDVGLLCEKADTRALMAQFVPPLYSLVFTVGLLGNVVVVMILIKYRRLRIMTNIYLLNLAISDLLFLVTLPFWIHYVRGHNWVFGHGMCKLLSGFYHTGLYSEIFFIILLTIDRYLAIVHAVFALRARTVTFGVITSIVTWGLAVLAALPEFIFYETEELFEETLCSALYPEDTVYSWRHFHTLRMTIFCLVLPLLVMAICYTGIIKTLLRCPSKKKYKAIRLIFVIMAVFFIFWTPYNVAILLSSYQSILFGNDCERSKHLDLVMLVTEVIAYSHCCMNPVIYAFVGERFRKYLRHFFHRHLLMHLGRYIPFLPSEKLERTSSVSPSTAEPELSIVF

[7] = molecular target: T3, chemokine receptor CCR3; experiment: radioligand competition, 125I-Eotaxin tracer, CCR3
[8] = molecular target: T3, chemokine receptor CCR3; experiment: cell-based or functional assay
[9] = molecular target: T2, chemokine receptor CCR1; experiment: cell-based or functional assay
[10] = molecular target: T2, chemokine receptor CCR1; experiment: radioligand competition binding, CCR1

T1 sequence (P51681 whole entry, one chain of several): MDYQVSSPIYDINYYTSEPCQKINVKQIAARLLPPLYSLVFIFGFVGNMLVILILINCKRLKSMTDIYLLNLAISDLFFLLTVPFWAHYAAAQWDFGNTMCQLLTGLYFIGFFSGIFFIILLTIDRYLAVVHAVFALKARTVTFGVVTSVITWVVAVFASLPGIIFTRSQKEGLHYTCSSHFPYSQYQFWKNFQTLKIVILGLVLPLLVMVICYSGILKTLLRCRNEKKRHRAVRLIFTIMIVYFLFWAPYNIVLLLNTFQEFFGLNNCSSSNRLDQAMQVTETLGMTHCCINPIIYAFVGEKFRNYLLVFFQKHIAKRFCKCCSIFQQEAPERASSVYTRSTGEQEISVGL

- aequorin assay (intracellular calcium), CHO-K1 cells expressing CCR5, EC50 [1]: 3.3 nM
B1: MIP 1-alpha (ligand, UniProt P10147 24-92, looked up)
chain: SLAADTPTACCFSYTSRQIPQNFIADYFETSSQCSKPGVIFLTKRSRQVCADPSEEWVQKYVSDLELSA

- Ki [2]: 0.023 nM
- IC50 [3]: 2.3 nM
- Ki [4]: 0.04 nM
- IC50 [5]: 0.04 nM
- IC50 [6]: 78 nM
- Ki [7]: 2.7 nM
- functional aequorin-based assay, EC50 [8]: 78 nM
- functional aequorin-based assay, EC50 [9]: 2.8 nM
- aequorin assay (intracellular calcium), CHO-K1 cells expressing CCR5, EC50 [1]: 4.8 nM
B2: processed human chemokine PHC-1 (ligand)
chain: GPYHPSECCFTYTTYKIPRQRIMDYYETNSQCSKPGIVFITKRGHSVCTNPSDKWVQDYIKDMKEN
notes: Purified from human hemofiltrate or made by tryptic digestion of HCC-1 (1-74); also called HCC-1[9-74]; HCC-1, residues 9-74

- functional aequorin-based assay, EC50 [9]: 6.3 nM
- aequorin assay (intracellular calcium), CHO-K1 cells expressing CCR5, EC50 [1]: 2.4 nM
B3: RANTES (ligand, UniProt P13501 24-91, looked up)
chain: SPYSSDTTPCCFAYIARPLPRAHIKEYFYTSGKCSNPAVVFVTRKNRQVCANPEKKWVREYINSLEMS

- Ki [10]: 100 nM
B4: full size human chemokine HCC-1, amino acid residues 1-74 (ligand)
chain: TKTESSSRGPYHPSECCFTYTTYKIPRQRIMDYYETNSQCSKPGIVFITKRGHSVCTNPSDKWVQDYIKDMKEN
notes: 74-residue chemokine, Mr 8673; Swiss-Prot Q16627 is printed for the HCC-1 precursor; also called full-size HCC-1; full length HCC-1
